Where a chain is given by its changes, count along the chain named.
B1: Ab0334 (antibody, IgG4, V domains shown)
VH: QVTLKESGPVLVKPTETLTLTCTVSGFSLNNARVGVSWIRQPPGKALEWLAHIFSNDEKSYSTSLKSRLTISKDTSKSQVVLTMTNMDPVDTATYYCARSVVTGGYYYEGMDVWGQGTTVTVSS
VL: SYVLTQPPSVSVAPGQTARITCGGSNIGSESVHWYQQKPGQAPVLVVYSASDRPSGIPERFSGSNSGNTATLTISRVEAGDEADYYCQVWAGSSDHVVFGGGTKLTVLG
B2: Ab0342 (antibody, IgG4, V domains shown)
VH: B1 VH
VL: B1 VL with S49A, S93E
B3: Ab0347 (antibody, IgG4, V domains shown)
VH: B1 VH
VL: B1 VL with S49A, A50S
B4: Ab0339 (antibody, IgG4, V domains shown)
VH: B1 VH
VL: B1 VL with S49A, A50E
B5: Ab0362 (antibody, IgG4, V domains shown)
VH: B1 VH
VL: B1 VL with S49T, A50E
B6: Ab0336 (antibody, IgG4, V domains shown)
VH: B1 VH
VL: B1 VL with A50H
B7: Ab0461 (antibody, IgG4, V domains shown)
VH: B1 VH with N30S
VL: B1 VL with S49E, A50E, A91E, S93E
B8: Ab0424 (antibody, IgG4, V domains shown)
VH: B1 VH
VL: B1 VL with A50S, A91H, S93A
B9: Ab0457 (antibody, IgG4, V domains shown)
VH: B1 VH with N30S
VL: B1 VL with A91E, S93E
B10: Ab0363 (antibody, IgG4, V domains shown)
VH: B1 VH
VL: B1 VL with S25A, S93A
B11: Ab0460 (antibody, IgG4, V domains shown)
VH: B1 VH with N30T, N31Y
VL: B1 VL with A91E, S93E
B12: Ab0458 (antibody, IgG4, V domains shown)
VH: B1 VH with N30T
VL: B1 VL with A91E, S93E
B13: Ab0453 (antibody, IgG4, V domains shown)
VH: B1 VH with N30S
VL: B1 VL with A50E, A91E, S93E
B14: Ab0423 (antibody, IgG4, V domains shown)
VH: B1 VH
VL: B1 VL with A50S, A91E, S93A
B15: Ab0341 (antibody, IgG4, V domains shown)
VH: B1 VH
VL: B1 VL with S49A, A50Y
B16: Ab0456 (antibody, IgG4, V domains shown)
VH: B1 VH with N30T, N31Y
VL: B1 VL with A50E, A91E, S93E
B17: Ab0343 (antibody, IgG4, V domains shown)
VH: B1 VH
VL: B1 VL with S49A
B18: Ab0349 (antibody, IgG4, V domains shown)
VH: B1 VH
VL: B1 VL with S49E, A50E, A91T
B19: Ab0459 (antibody, IgG4, V domains shown)
VH: B1 VH with N30S, N31Y
VL: B1 VL with A91E, S93E
B20: Ab0454 (antibody, IgG4, V domains shown)
VH: B1 VH with N30T
VL: B1 VL with A50E, A91E, S93E
B21: Ab0356 (antibody, IgG4, V domains shown)
VH: B1 VH
VL: B1 VL with S49E
B22: Ab0455 (antibody, IgG4, V domains shown)
VH: B1 VH with N30S, N31Y
VL: B1 VL with A50E, A91E, S93E
B23: Ab0348 (antibody, IgG4, V domains shown)
VH: B1 VH
VL: B1 VL with S49E, A50E, A91T, S93E
B24: Ab0365 (antibody, IgG4, V domains shown)
VH: B1 VH
VL: B1 VL with S25A, S49T, A50E
B25: Ab0359 (antibody, IgG4, V domains shown)
VH: B1 VH
VL: B1 VL with S49E, A50H
B26: Ab0346 (antibody, IgG4, V domains shown)
VH: B1 VH
VL: B1 VL with S49A, A50H
B27: Ab0428 (antibody, human IgG1, lambda)
heavy: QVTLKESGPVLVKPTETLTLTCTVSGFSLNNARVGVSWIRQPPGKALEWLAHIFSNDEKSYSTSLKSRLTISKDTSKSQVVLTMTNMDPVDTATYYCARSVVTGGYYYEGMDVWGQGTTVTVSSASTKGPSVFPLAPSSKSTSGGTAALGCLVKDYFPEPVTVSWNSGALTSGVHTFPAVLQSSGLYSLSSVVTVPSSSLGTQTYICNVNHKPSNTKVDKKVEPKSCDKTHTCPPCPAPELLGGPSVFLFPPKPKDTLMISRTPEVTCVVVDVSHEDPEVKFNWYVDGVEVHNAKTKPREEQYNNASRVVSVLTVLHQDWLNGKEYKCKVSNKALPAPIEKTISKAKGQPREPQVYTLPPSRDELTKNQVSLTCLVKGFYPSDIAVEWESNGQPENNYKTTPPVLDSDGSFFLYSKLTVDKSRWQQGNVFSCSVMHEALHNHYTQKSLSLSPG
light: SYVLTQPPSVSVAPGQTARITCGGSNIGSESVHWYQQKPGQAPVLVVYSESDRPSGIPERFSGSNSGNTATLTISRVEAGDEADYYCQVWEGESDHVVFGGGTKLTVLGQPKANPTVTLFPPSSEELQANKATLVCLISDFYPGAVTVAWKADGSPVKAGVETTKPSKQSNNKYAASSYLSLTPEQWKSHRSYSCQVTHEGSTVEKTVAPTECS
B28: Ab0429 (antibody, human IgG1, lambda)
heavy: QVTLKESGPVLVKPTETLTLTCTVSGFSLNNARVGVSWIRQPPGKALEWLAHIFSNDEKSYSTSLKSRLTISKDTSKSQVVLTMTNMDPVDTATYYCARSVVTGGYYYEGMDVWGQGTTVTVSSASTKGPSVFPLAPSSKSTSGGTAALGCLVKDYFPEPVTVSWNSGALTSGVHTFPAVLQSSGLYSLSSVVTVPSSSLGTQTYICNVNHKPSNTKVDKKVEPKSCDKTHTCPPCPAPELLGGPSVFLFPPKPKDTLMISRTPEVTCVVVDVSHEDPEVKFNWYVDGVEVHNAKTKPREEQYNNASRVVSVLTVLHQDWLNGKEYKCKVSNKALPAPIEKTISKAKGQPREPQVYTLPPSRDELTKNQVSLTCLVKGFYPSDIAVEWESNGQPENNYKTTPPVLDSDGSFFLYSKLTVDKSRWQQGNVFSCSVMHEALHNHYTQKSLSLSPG
light: B27 light with E50A
B29: Ab0430 (antibody, human IgG1, lambda)
heavy: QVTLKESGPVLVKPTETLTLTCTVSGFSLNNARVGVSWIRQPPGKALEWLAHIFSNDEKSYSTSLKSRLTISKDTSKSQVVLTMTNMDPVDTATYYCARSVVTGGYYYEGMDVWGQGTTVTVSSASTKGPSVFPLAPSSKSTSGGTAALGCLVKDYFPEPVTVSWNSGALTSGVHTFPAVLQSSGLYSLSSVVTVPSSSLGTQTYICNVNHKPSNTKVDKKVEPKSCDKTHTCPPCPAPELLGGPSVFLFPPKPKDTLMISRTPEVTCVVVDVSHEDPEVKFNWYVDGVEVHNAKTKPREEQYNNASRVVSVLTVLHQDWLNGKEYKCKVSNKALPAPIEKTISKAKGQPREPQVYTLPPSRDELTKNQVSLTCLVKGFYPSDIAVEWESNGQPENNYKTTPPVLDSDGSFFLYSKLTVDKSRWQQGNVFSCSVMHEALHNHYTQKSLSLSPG
light: B27 light with S49E

Target: human FGFR1c + KLB receptor complex on HEK293 iLite FGF21 reporter cells (human, UniProt P11362 22-822; Q86Z14 1-1044)
Sequence (P11362 22-822, chain 1 of 2): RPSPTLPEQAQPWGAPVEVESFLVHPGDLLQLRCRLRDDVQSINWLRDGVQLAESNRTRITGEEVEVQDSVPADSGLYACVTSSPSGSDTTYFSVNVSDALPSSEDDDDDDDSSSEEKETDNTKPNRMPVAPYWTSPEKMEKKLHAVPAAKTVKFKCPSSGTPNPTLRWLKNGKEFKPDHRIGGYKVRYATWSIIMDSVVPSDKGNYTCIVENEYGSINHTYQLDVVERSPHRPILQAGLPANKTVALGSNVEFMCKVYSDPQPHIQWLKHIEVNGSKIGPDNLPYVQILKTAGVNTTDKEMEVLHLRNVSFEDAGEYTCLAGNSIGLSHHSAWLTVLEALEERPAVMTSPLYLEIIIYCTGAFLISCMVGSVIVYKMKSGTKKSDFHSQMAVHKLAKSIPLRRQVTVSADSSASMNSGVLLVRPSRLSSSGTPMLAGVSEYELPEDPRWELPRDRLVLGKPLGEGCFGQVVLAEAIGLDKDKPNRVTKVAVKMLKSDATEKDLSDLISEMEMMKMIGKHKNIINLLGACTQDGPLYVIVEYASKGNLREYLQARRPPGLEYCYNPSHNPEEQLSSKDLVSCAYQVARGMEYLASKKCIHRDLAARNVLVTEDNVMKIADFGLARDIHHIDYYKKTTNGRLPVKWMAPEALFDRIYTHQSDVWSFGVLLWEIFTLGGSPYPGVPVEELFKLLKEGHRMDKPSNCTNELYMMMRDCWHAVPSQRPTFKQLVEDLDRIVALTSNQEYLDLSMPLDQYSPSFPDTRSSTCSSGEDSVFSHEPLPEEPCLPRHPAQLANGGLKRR
Sequence (Q86Z14 whole entry, chain 2 of 2): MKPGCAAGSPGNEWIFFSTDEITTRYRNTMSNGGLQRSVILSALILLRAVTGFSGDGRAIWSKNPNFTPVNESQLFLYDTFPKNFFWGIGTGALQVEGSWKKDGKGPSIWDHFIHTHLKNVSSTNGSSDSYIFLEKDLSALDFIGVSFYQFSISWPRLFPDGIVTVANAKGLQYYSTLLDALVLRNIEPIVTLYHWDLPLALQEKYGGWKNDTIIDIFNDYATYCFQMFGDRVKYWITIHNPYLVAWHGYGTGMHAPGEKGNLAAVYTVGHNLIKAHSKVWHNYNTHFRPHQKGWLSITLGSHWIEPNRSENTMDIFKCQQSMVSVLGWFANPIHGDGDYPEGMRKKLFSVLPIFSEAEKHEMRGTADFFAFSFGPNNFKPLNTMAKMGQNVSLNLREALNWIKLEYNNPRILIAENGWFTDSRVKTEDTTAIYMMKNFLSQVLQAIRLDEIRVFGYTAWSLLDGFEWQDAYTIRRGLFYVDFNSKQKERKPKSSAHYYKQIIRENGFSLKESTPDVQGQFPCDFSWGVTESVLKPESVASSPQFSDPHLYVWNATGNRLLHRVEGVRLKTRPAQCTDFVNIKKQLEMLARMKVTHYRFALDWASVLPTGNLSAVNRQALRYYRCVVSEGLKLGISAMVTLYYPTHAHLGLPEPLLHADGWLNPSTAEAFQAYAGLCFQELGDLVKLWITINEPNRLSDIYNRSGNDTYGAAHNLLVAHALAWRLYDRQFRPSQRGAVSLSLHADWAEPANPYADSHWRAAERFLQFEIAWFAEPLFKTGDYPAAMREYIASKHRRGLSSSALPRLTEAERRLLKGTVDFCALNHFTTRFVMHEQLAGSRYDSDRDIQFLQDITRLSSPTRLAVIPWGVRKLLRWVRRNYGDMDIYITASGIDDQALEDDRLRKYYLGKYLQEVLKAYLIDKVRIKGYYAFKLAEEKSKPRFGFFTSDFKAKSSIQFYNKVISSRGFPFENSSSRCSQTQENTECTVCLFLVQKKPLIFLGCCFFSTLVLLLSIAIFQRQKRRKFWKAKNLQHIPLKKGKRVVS
Experiment: cell-based or functional assay

Binder	EC50	Emax
B1	1.02 nmol/L	718%
B2	0.34 nmol/L	775%
B3	0.24 nmol/L	695%
B4	2.16 nmol/L	545%
B5	11.6 nmol/L	662%
B6	2.91 nmol/L	576%
B7	0.02 nmol/L	1390%
B8	0.07 nmol/L	1390%
B9	0.02 nmol/L	1520%
B10	0.48 nmol/L	736%
B11	0.05 nmol/L	1050%
B12	0.02 nmol/L	1430%
B13	0.03 nmol/L	1400%
B14	0.05 nmol/L	1510%
B15	1.4 nmol/L	528%
B16	0.07 nmol/L	1080%
B17	1.37 nmol/L	482%
B18	10.7 nmol/L	511%
B19	0.04 nmol/L	1110%
B20	0.03 nmol/L	1390%
B21	5.35 nmol/L	620%
B22	0.07 nmol/L	1020%
B23	0.53 nmol/L	641%
B24	0.85 nmol/L	583%
B25	2.53 nmol/L	550%
B26	2.25 nmol/L	532%
B27	0.03 nmol/L	1280%
B28	0.04 nmol/L	1290%
B29	0.03 nmol/L	1100%

— patent US20220010021A1 (Sanofi, published 2022)
